Test: soluble on expression in E. coli; label from the status in PepcDB or PDB records

Sequence | soluble on expression in E. coli
MAQGLIEVERKFAPGPDTEERLQELGATLEHRVTFRDTYYDTSELSLMLSDHWLRQREGSGWELKCPGVTGVSGPHNEYVEVTSEAAIVAQLFELLGSGEQKPAGVAAVLGSLKLQEVASFITTRSSWKLALSGAHGQEPQLTIDLDSADFGYAVGEVEAMVHEKAEVPAALEKIITVSSMLGVPAQEEAPAKLMVYLQRFRPLDYQRLLEAASSGEATGDSAS | soluble
MSLIRKFSSKDLDAVEEIEREAFKTPYPTSLILGFWSMYPNCFYVAEIDGRVVGYILGSMDWGNGHIISLAVKKECRGLGIGTALLKTLENYYFNIANCNYIVLEVRVSNVLARRFYYRMGYRDRKLLPKYYEDGEDAILMIKKKPNAKGPLIITLWEGHHHHHH | soluble
MGSDKIHHHHHHMSRDLPPLNALRAFESTARFGSVSQAAEQLSVTHGAVSRQLKVLEEHLGVSLFSKDGRGLKLTDAGIRLRDASADAFDRLRSVCAELSKGSVDAPFVLGCSGSLLARWFIPRLSRLNAELPDLRLHLSAGEGDLDPRRPGLDALLVFAEPPWPADMQVFELASERIGPVLSPRFARFESMRDAPANALLEESLLQTTSRPQAWPSWAQQNGIDPDALRYGQGFEHLYYLLEAAVAGLGIAIAPEPLVIDDLKAGRLAAPWGFSETPAQLALWVPRRAADGRARQLAQWLKNELKRSGDPIRN | not soluble
MMDGDIIGENEDGIGVDVSDNNEIIHEISIEKGSWEIVYHEQDGYPDKAAKRTPDGNEHVNQARRFARYHVYKERGYETFPWDEHIGYIETVGDAIKSLSTEEFEDYFGEFYETVAGSLSLNSGGDITALFAAIQEKANAYYIDVYLDNDGQVEATSEVRQIIPTDDWQEELESPPEDTDRVPD | not soluble
GQEPENQTLETILNRKSVRKYKDRPVEKEKIDKLIRAGMAAPSSRDRRPWEFIIVTDRKALDTMAEGLPFARMLKETRQAIVVCGDTIKSSNAWFLDCSAASQNLLLAAESMGLGAVWTAVYPYPDRIEIVRKELRLPDHIMPLNVIPVGYPMQKETPKNKYNVQQIHHNGW | soluble
MGSDKIHHHHHHMSARNETGYERVLVPVGDKSDPNMLTELSSILVDPRRGAVRFTHVTTDRSFVGSQENWRTGSDSVAESQHTLREEGIESTGTIRTASSALDGILEEAEEYEADAILIGWTDKDSVSSLVDKLLRKAGCDVIVFSADRDPIDTDSILVPVVVKPDANRLQMLAIMSQRTGASITFTYVTGDEGTDEEGRGLLDQSAERLAEYGVQAETELKSASSAVDALGQLSEDYDVMVIGTSRGWWLRKTLFGRKTDKIAQEAQCSLLMHKWQGEVPPES | not soluble
MIKRPIHLSHDFLAEVIDKEAITLDATMGNGNDTVFLAKSSKKVYAFDIQEEAIAKTKAKLTEQGISNAELILDGHENLEQYVHTPLRAAIFNLGYLPSADKTVITKPHTTIKAIKNVLDILEVGGRLSLMVYYGHDGGKSEKDAVIAFVEQLPQNNFATMLYQPLNQVNTPPFLIMVEKLQSYENEV | not soluble
QRKNNNKRWYFTREQLENSPSRRFGLDPDKELSYRQQAANLLQDMGQRLNVSQLTINTAIVYMHRFYMIQSFTRFHRNSVAPAALFLAAKVEEQPKKLEHVIKVAHTCLHPQESLPDTRSEAYLQQVQDLVILESIILQTLGFELTIDHPHTHVVKCTQLVRASKDLAQTSYFMATNSLHLTTFSLQYTPPVVACVCIHLACKWSNWEIPVSTDGKHWWEYVDATVTLELLDELTHEFLQILEKTPNRLKRIWNWRACQAAKKT | soluble
MIDKSSKRDKEVEPLKDNISILIMGVDGSEMRKSQYGEAVRTDALLLATINKDDKSVKLVSIPRDSRVYIPSRKKLDKITHAHVFGGVESTRDTVERFLNVPVDYYVKFNFESFVQIVDSLGGIDIDVPVTFTEQDSKDQAGMIHLEKGYQHLNGEQALALARTRKIDSDAMRGQRQQLVIEAIAKKAMSVQSISKMGSLLDAVDKNMKTNLTFDDMLAITKNMAGSNLEMEKMQVEGTDKRIGGIYYYIPNEKNVKDISKKLNEHLGVLEHHHHHH | soluble
MGSDKIHHHHHHMLKHFGSKVRNLRVTRNITREDFCGDETELSVRQLARIESGQSIPNLTKAHYIAKQLNVKLDILTGGESLELPKRYKELKYLILRIPTYADAERLKLRECQFDHIFEEFYDNLPEDECLAIDSLQAKFEVYQTGDINFGVEVLCECFDKVKYKEKYTLNDLIIIDLFLTCAVVSKFNNRAFTKEVFQTICKTLISQNHKLTAEDLFWFNHVLLNCVFVGLCLNSEECLAEMLEVSRQTMVSTHDFHKMPLYFMYQWKYFITIDNDIKSAENAYQQSIMFSKMIDDKHLIKKLELEWQEDITGH | not soluble
MGSDKIHHHHHHMWFRNLLIYRLAGEVITSDELEAYLAKQTLQGCLGLEPQSRGWVPPGIAEADLVYSYGQQMLIALGTEKKLLPASVVNQLAKVRAQEMESHQGYAPGRKQMKEIKEAAYRELLSRAFAIRQRSHAWIDPVGGWFIVEGASASKADALIEAFIKSTGIGLKRIRTTMAPTSAMTAWLSGDDPPAIFSVDSDSIFRSREDKKVSVSYIRQSPDPQEITRHVRTGKEVIRLAMTWRDKISFILDENLQLKRLTLLDIDREPAETAEEQFDSNFFLMTEELRQLLPDLVEILGGMTAD | not soluble
SQDPYFKIANWTNEHDDFKKAEMRMDEKHRKKVDKVMKEWGDLETRYNEQKAKDPKGAEKFKSQMNARFQKTVSSLEEEHKRMRKEIEAVHEERVQAMLNEKKRDATHDYRQALATHVNKPNKHSVLQSLKAYIRAEEKDRMHTLNRYRHLLKADSKEAAAYKPTVIHRLRYIDLRINGTLAMLRDFPDLEKYVRPIAVTYWKDYRDEVSPDISVEDSELTPIIHDDEFSKNAKLDVKA | soluble
MIFRRSRPGTIGAVTLLCASLLAMPASSACTRFVYHGANDEVITARSMDWKVDVGTNLWAFPRGMQRSGQAGPNSIQWTSKHGSVIASGYDISTTDGMNEAGLVANVLWLAESSYPEYDGKTPGLTLAAWAQYVLDNFASVREAVDTLASEPFTVVTDNVPGEQRPATLHLSLSDASGDSAIIEYIDGKQVIHHNRAYQVMTNSPTFDKQLALNEYWKQIGGTVMLPGTNRASDRYARAYFYVNAIPKSEDPVEAIASVFSVIRNVSVPYGITTPDQPNISSTRWRTVADHKRKRYFFESALTPNIFWIDLGALDFSAESGKVMKLDLGPDQAHIYSGQANAHFEQAAPFKFLGL | not soluble
SMQQRKVLTLEKEDNQTFGFEIQTYGLHHREEQRVEMVTFVCRVHESSPAQLAGLTPGDTIASVNGLNVEGIRHREIVDIIKASGNVLRLETLYSSTL | soluble
MSLTGLFEPIAPQAPLAERLRPKSLDEVVGQRHLLGEGKPLRLAFTSGKLPSMILWGPPGVGKTTLARLIANTADAEFIPLSAVLAGIKDIREAVERAEHTLQQSGRRTILFVDEVHRFNKGQQDAFLPFVESGLITFIGATTENPSFEVNSALLSRAQVFVLNALSEDELKQLLERGKQEMQLDIPLTPEVVEQVLGYADGDARRLLNFVEGLFNAALTAGVTKIDAEFLQSTMASKLRRFDKGGEAFYDQISALHKSVRGSNPDAALYWFLRMLDGGADPLYLGRRIVRMAVEDIGIADPRAQTMALEACQIYERLGSPEGELALSNAVIYLAVAAKSNAAYMAYNQAKAFVASDKSRPVPLHLRNAPTKLMKDLNYGKEYRYAHNEPGAYAAGEDYFPDGLEAIQFYVPTQRGLEGKISEKMAHLRALDEEARSKEGHHHHHH | soluble
MSLTYPYRTTMALNTYQYRETTMIDPKKIEQIARQVHESMPKGIREFGEDVEKKIRQTLQAQLTRLDLVSREEFDVQTQVLLRTREKLALLEQRISELENRSTEIKKQPDPETLPPTLEGGSHHHHHH | soluble
